Source: patent US20250326791A1 (published 2025)
Bridges are numbered along the chain shown (N, C = ends). Where no end group is shown, it is not given here. [ ]: non-standard residue; d: D form.

How the values were obtained:
Experiment in all cases: protein binding radioassay
µ opioid receptor (MOR) = molecular target: µ opioid receptor (MOR)
δ opioid receptor (DOR) = molecular target: δ opioid receptor (DOR)
κ opioid receptor (KOR) = molecular target: κ opioid receptor (KOR)

Binder: YASPKCFRY[dA]GF[dL]LACT (disulfide 6-16) [DADLE-OL]
- Kd (µ opioid receptor (MOR)): 3540 nM
- Kd (δ opioid receptor (DOR)): 64 nM
- Kd (κ opioid receptor (KOR)): > 10000 nM

Binder: Y[dA]GF[dL]KCFRYPNGVLACT (disulfide 7-17, 18 residues) [DADLE-OL II]
- Kd (µ opioid receptor (MOR)): 123 nM
- Kd (δ opioid receptor (DOR)): 275 nM
- Kd (κ opioid receptor (KOR)): 1080 nM
